In the supplement of paper PMC7877785:
± gives the uncertainty stated by the source.

Test: self-splicing fitness, log relative to wild type (ln ratio); higher = more splicing; Tetrahymena group I intron in knt gene, E. coli kanamycin selection, DiMSum; sequences stand for … in CUCUCU…GGAGGGAAAAGUUAUCAGGCAUGCACCUGGUAGCUAGUCUUUAAACCAAUAGAUUGCAUCGGUUUAAAAGGCAAGACCGUCAAAUUGCGGGAAAGGGGUCAACAGCCGUUCAGUACCAAGUCUCAGGGGAAACUUUGAGAUGGCCUUGCAAAGGGUAUGGUAAUAAGCUGACGGACAUGGUCCUAACCACGCAGCCAAGUCCUAAGUCAACAGAUCUUCUGUUGAUAUGGAUGCAGUUCACAGACUAAAUGUCGGUCGGGGAAGAUGUAUUCUUCUCAUAAGAUAUAGUCGGACCUCUCCUUAAUGGGAGCUAGCGGAUGAAGUGAUGCAACACUGGAGCCGCUGGGAACUAAUUUGUAUGCGAAAGUAUAUUGAUUAGUUUUGGAGUACUCGUGGUCG
In short: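 A randomised library covering all eight P1ex-region intron nucleotides was built with the intron in the knt kanamycin-resistance gene on pET-22b(+) and held in E. coli BL21(DE3). Cells were grown overnight at 37°C or 30°C on LB agar, with or without 25 μg/mL kanamycin, plus 100 μg/mL carbenicillin, 50 μM IPTG and 0.2% rhamnose, and pooled colonies were amplicon-sequenced on an Illumina HiSeq 2500. DiMSum fitness is the error-weighted combination of wild-type-normalised replicate fold changes, kanamycin versus none.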

| Sequence | self-splicing fitness (ln) (30 °C) | self-splicing fitness (ln) (37 °C) |
| --- | --- | --- |
| AUCUAGCAAUAUUACGCAUU | -1.48 ± 0.1 | -0.414 ± 0.1 |
| AUGCAGCAAUAUUACGGCGU | -4.06 ± 0.24 | -1.76 ± 0.2 |
| GCCGAGCAAUAUUACGUUGU | -2.48 ± 0.12 | -1.54 ± 0.12 |
| AGUAAGCAAUAUUACGAAAG | -4.26 ± 0.37 |  |
| ACAUAGCAAUAUUACGAUGG | -1.64 ± 0.088 | -0.176 ± 0.11 |
| UAGUAGCAAUAUUACGUAGU | -4.39 ± 0.42 | -0.839 ± 0.21 |
| AUAUAGCAAUAUUACGAUUU | -0.24 ± 0.095 | 0.694 ± 0.12 |
| AUACAGCAAUAUUACGAUGU | -0.929 ± 0.076 | -0.0117 ± 0.089 |
| CUCCAGCAAUAUUACGCAUU | -3.38 ± 0.13 | -3.51 ± 0.23 |
| UAAGAGCAAUAUUACGCCUU | -3.87 ± 0.25 | -2.89 ± 0.48 |
| CCGCAGCAAUAUUACGUUUG | -1.62 ± 0.065 | -1.36 ± 0.096 |
| UCUGAGCAAUAUUACGGGUC | -4.32 ± 0.39 | -2.38 ± 0.3 |
| UAGCAGCAAUAUUACGUGGA | -2.16 ± 0.12 | -1.46 ± 0.11 |
| UGAUAGCAAUAUUACGGACA | -0.237 ± 0.1 | 0.61 ± 0.14 |
| AAACAGCAAUAUUACGGGUG | -3.09 ± 0.094 | -1.73 ± 0.089 |
| UAGUAGCAAUAUUACGCGAG | -1.57 ± 0.12 | -0.941 ± 0.17 |
| GAAAAGCAAUAUUACGGUGU | -2.55 ± 0.096 | -0.927 ± 0.11 |
| AUCGAGCAAUAUUACGUACA | -3.78 ± 0.33 | -1.72 ± 0.16 |
| AUCUAGCAAUAUUACGAAGU | -0.522 ± 0.24 | -0.543 ± 0.31 |
| AGGAAGCAAUAUUACGCUGA | -2.96 ± 0.23 | -1.97 ± 0.22 |
| CACCAGCAAUAUUACGCGCC | -2.68 ± 0.17 | -2.4 ± 0.2 |
| CAUCAGCAAUAUUACGUCGC | -3.05 ± 0.18 | -2.11 ± 0.23 |
| CUUUAGCAAUAUUACGCGCU | -3.14 ± 0.25 | -0.469 ± 0.17 |
| GGUCAGCAAUAUUACGCCAA | -1.17 ± 0.25 | -2.06 ± 0.22 |

| Sequence | self-splicing fitness (ln) (30 °C) | self-splicing fitness (ln) (37 °C) |
| --- | --- | --- |
| UCCAAGCAAUAUUACGGACG | -4.26 ± 0.2 | -2.82 ± 0.16 |
| ACGAAGCAAUAUUACGCAUU | -3.42 ± 0.12 | -1.95 ± 0.096 |
| UUGGAGCAAUAUUACGACUG | -0.79 ± 0.46 | 0.294 ± 0.47 |
| CACCAGCAAUAUUACGGCGG | -0.993 ± 0.065 | -0.567 ± 0.079 |
| UGCUAGCAAUAUUACGAUAU | -2.3 ± 0.23 | -2.25 ± 0.21 |
| AUCAAGCAAUAUUACGUUGU | -3.46 ± 0.17 | -1.92 ± 0.12 |
| UACUAGCAAUAUUACGGAGG | -2.77 ± 0.17 | -1.28 ± 0.13 |
| UACAAGCAAUAUUACGUAGA | -2.84 ± 0.14 | -1.46 ± 0.13 |
| UCAAAGCAAUAUUACGCUCU | -3.71 ± 0.27 | -2.69 ± 0.26 |
| CGGCAGCAAUAUUACGAUGC | -3.41 ± 0.29 | -1.6 ± 0.32 |
| UUACAGCAAUAUUACGUCGC | -2.92 ± 0.17 | -2.55 ± 0.18 |
| CGCUAGCAAUAUUACGCGGA | -3.21 ± 0.17 | -1.73 ± 0.099 |
| GACCAGCAAUAUUACGUAAC | -0.981 ± 0.065 | -0.475 ± 0.079 |
| UGUUAGCAAUAUUACGCCCC |  | 0.337 ± 0.48 |
| AGUAAGCAAUAUUACGCCGG | -2.45 ± 0.39 | -1.99 ± 0.34 |
| AUAUAGCAAUAUUACGCACG | -1.54 ± 0.23 | -0.439 ± 0.21 |
| CAGCAGCAAUAUUACGGACU | -2.43 ± 0.21 | -1.41 ± 0.13 |
| UCUCAGCAAUAUUACGUAUU | -3.14 ± 0.2 | -2 ± 0.16 |
| CUCUAGCAAUAUUACGAGAU | -3.29 ± 0.43 | -2.94 ± 0.31 |
| UCUUAGCAAUAUUACGUCCU | -1.97 ± 0.28 | -2.7 ± 0.38 |
| GUUUAGCAAUAUUACGAUAU | -1.18 ± 0.14 | -0.528 ± 0.16 |
| UACAAGCAAUAUUACGCCCU | -0.317 ± 0.085 | -0.111 ± 0.12 |
| AUUUAGCAAUAUUACGACGU | 0.023 ± 0.064 | 0.539 ± 0.077 |
| AAACAGCAAUAUUACGGCUU | -0.312 ± 0.052 | 0.129 ± 0.07 |
